Test results reported in US20260274985A1 (MYTHIC THERAPEUTICS, published 2026).
Like-named read-outs stand apart in the source and are kept apart here.

T1: Human TROP2 Protein, His Tag (Acro Biosystems) (human, UniProt P09758 27-274)
T1 construct: Bought protein; not shown: His tag
T1 sequence (looked up): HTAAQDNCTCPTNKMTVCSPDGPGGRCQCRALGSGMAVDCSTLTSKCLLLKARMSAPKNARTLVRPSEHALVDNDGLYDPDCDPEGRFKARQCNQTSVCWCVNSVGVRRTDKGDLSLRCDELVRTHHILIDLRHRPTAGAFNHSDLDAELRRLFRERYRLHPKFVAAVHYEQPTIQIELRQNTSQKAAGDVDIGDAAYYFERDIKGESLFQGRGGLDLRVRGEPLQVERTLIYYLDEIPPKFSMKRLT

T2: Human TROP2 Protein, His Tag (Acro Biosystems) (human, UniProt P09758 27-274)
T2 construct: Bought protein; also called TACSTD2; not shown: His tag
T2 sequence: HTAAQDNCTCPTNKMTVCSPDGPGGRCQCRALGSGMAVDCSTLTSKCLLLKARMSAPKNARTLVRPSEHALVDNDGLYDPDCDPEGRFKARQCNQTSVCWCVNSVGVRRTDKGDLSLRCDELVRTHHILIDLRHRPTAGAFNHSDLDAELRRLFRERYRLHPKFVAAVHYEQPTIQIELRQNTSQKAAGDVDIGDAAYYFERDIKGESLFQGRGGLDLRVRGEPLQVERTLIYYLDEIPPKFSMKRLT


Experiments:
[1] = target: T1, Human TROP2 Protein, His Tag (Acro …); experiment: BLI (Octet)
Procedure: After allowing for four days of protein expression, cell culture supernatants were collected, quantified by SDS-PAGE analysis (DNS), and the pH dependence of the variant was evaluated using biolayer interferometry (BLI) on an Octet RED 96e instrument. Briefly, cell culture supernatants were diluted based on qualitative expression level of the variant determined by visual examination of SDS-PAGE gels, 5 μL of cell culture supernatant was diluted into 195 μL of 1×PBST, pH 7.4 for high expressors, 25 μL of cell culture supernatant was diluted into 175 μL of 1×PBST, pH 7.4 for medium expressors and 100 μL of cell culture supernatant was diluted into 100 μL of 1×PBST, pH 7.4 for low expressors for loading onto the sensor tips. The resulting diluted supernatants were then captured on an anti-human Fc sensor (Forte Bio). A baseline was established using 1×PBST (50 mM Potassium Phosphate Buffer+150 mM NaCl+0.05% Tween 20) pH 7.4, and the sensor was associated with 50 nM of TROP2 (Human TROP2 Protein, His Tag, Acro Biosystems) in 1×PBST pH 7.4 for 120 sec to generate an association curve. In the dissociation phase, the antibody-antigen complex on the sensor was exposed to 1×PBST pH 7.4 or pH 5.4, for 300 sec. Association and dissociation phase curves were examined for the starting ABPC antibody (with no substitutions) and each corresponding antibody variant at pH 5.4 and pH 7.4 to inform on two criteria: a) enhanced dissociation (i.e., higher koff values) at pH 5.4 due to histidine or alanine substitution compared to the starting ABPC, (with no substitutions), and b) reduced dissociation at pH 7.4 (i.e., lower koff values) compared to pH 5.4 in the antibody variant itself and with the starting ABPC (with no substitutions). […] It was also noted that while some mutations obliterated TROP2 binding, others were tolerated with little or n change in TROP2 binding kinetics.

[2] = target: T2, Human TROP2 Protein, His Tag (Acro …); experiment: BLI (Octet)

| Binder | binding result [1] | binding result [2] |
| --- | --- | --- |
| MYT11613 (antibody, V domains shown, Sacituzumab variant, His at LCV position 29 (L1 06)) VH: QVQLQQSGSELKKPGASVKVSCKASGYTFTNYGMNWVKQAPGQGLKWMGWINTYTGEPTYTDDFKGRFAFSLDTSVSTAYLQISSLKADDTAVYFCARGGFGSSYWYFDVWGQGSLVTVSS VL: DIQLTQSPSSLSASVGDRVSITCKASQDHSIAVAWYQQKPGKAPKLLIYSASYRYTGVPDRFSGSGSGTDFTLTISSLQPEDFAVYYCQQHYITPLTFGAGTKVEIK | binds | – |
| MYT11615 (antibody, V domains shown, Sacituzumab variant, His at LCV position 31 (L1 08)) VH: QVQLQQSGSELKKPGASVKVSCKASGYTFTNYGMNWVKQAPGQGLKWMGWINTYTGEPTYTDDFKGRFAFSLDTSVSTAYLQISSLKADDTAVYFCARGGFGSSYWYFDVWGQGSLVTVSS VL: DIQLTQSPSSLSASVGDRVSITCKASQDVSHAVAWYQQKPGKAPKLLIYSASYRYTGVPDRFSGSGSGTDFTLTISSLQPEDFAVYYCQQHYITPLTFGAGTKVEIK | binds | – |
| MYT11620 (antibody, V domains shown, Sacituzumab variant, His at LCV position 51 (L2 02)) VH: QVQLQQSGSELKKPGASVKVSCKASGYTFTNYGMNWVKQAPGQGLKWMGWINTYTGEPTYTDDFKGRFAFSLDTSVSTAYLQISSLKADDTAVYFCARGGFGSSYWYFDVWGQGSLVTVSS VL: DIQLTQSPSSLSASVGDRVSITCKASQDVSIAVAWYQQKPGKAPKLLIYSHSYRYTGVPDRFSGSGSGTDFTLTISSLQPEDFAVYYCQQHYITPLTFGAGTKVEIK | binds | – |
| MYT11621 (antibody, V domains shown, Sacituzumab variant, His at LCV position 52 (L2 03)) VH: QVQLQQSGSELKKPGASVKVSCKASGYTFTNYGMNWVKQAPGQGLKWMGWINTYTGEPTYTDDFKGRFAFSLDTSVSTAYLQISSLKADDTAVYFCARGGFGSSYWYFDVWGQGSLVTVSS VL: DIQLTQSPSSLSASVGDRVSITCKASQDVSIAVAWYQQKPGKAPKLLIYSAHYRYTGVPDRFSGSGSGTDFTLTISSLQPEDFAVYYCQQHYITPLTFGAGTKVEIK | binds | – |
| MYT11617 (antibody, V domains shown, Sacituzumab variant, His at LCV position 33 (L1 10)) VH: QVQLQQSGSELKKPGASVKVSCKASGYTFTNYGMNWVKQAPGQGLKWMGWINTYTGEPTYTDDFKGRFAFSLDTSVSTAYLQISSLKADDTAVYFCARGGFGSSYWYFDVWGQGSLVTVSS VL: DIQLTQSPSSLSASVGDRVSITCKASQDVSIAHAWYQQKPGKAPKLLIYSASYRYTGVPDRFSGSGSGTDFTLTISSLQPEDFAVYYCQQHYITPLTFGAGTKVEIK | binds | – |
| MYT12410 (hu7E6SVG variant, HCV substitutions at 33, 56) (antibody, V domains shown) VH: QVQLQESGPGLVKPSETLSLTCTVSGGSISSYHVHWIRQPPGKGLEWIGVIWTSGHTDYNSALMGRVTISVDTSKNQFSLKLSSVTAADTAVYYCARDGDYDRYTMDYWGQGTLVTVSS VL: DIVMTQSPDSLAVSLGERATINCRASKSVSTSGYSYMHWYQQKPGQPPKLLIYLASNLESGVPDRFSGSGSGTDFTLTISSLQAEDVAVYYCQHSRELPYTFGQGTKLEIK | – | binds |
| MYT12428 (hu7E6SVG variant, HCV substitutions at 103, 106) (antibody, V domains shown) VH: QVQLQESGPGLVKPSETLSLTCTVSGGSISSYGVHWIRQPPGKGLEWIGVIWTSGVTDYNSALMGRVTISVDTSKNQFSLKLSSVTAADTAVYYCARDGDYDHYTHDYWGQGTLVTVSS VL: DIVMTQSPDSLAVSLGERATINCRASKSVSTSGYSYMHWYQQKPGQPPKLLIYLASNLESGVPDRFSGSGSGTDFTLTISSLQAEDVAVYYCQHSRELPYTFGQGTKLEIK | – | binds |
| MYT12427 (hu7E6SVG variant, HCV substitutions at 102, 106) (antibody, V domains shown) VH: QVQLQESGPGLVKPSETLSLTCTVSGGSISSYGVHWIRQPPGKGLEWIGVIWTSGVTDYNSALMGRVTISVDTSKNQFSLKLSSVTAADTAVYYCARDGDYHRYTHDYWGQGTLVTVSS VL: DIVMTQSPDSLAVSLGERATINCRASKSVSTSGYSYMHWYQQKPGQPPKLLIYLASNLESGVPDRFSGSGSGTDFTLTISSLQAEDVAVYYCQHSRELPYTFGQGTKLEIK | – | binds |
| MYT12426 (hu7E6SVG variant, HCV substitutions at 102, 103) (antibody, V domains shown) VH: QVQLQESGPGLVKPSETLSLTCTVSGGSISSYGVHWIRQPPGKGLEWIGVIWTSGVTDYNSALMGRVTISVDTSKNQFSLKLSSVTAADTAVYYCARDGDYHHYTMDYWGQGTLVTVSS VL: DIVMTQSPDSLAVSLGERATINCRASKSVSTSGYSYMHWYQQKPGQPPKLLIYLASNLESGVPDRFSGSGSGTDFTLTISSLQAEDVAVYYCQHSRELPYTFGQGTKLEIK | – | binds |
| MYT12415 (hu7E6SVG variant, HCV substitutions at 34, 56) (antibody, V domains shown) VH: QVQLQESGPGLVKPSETLSLTCTVSGGSISSYGHHWIRQPPGKGLEWIGVIWTSGHTDYNSALMGRVTISVDTSKNQFSLKLSSVTAADTAVYYCARDGDYDRYTMDYWGQGTLVTVSS VL: DIVMTQSPDSLAVSLGERATINCRASKSVSTSGYSYMHWYQQKPGQPPKLLIYLASNLESGVPDRFSGSGSGTDFTLTISSLQAEDVAVYYCQHSRELPYTFGQGTKLEIK | – | binds |
| MYT12423 (hu7E6SVG variant, HCV substitutions at 56, 102) (antibody, V domains shown) VH: QVQLQESGPGLVKPSETLSLTCTVSGGSISSYGVHWIRQPPGKGLEWIGVIWTSGHTDYNSALMGRVTISVDTSKNQFSLKLSSVTAADTAVYYCARDGDYHRYTMDYWGQGTLVTVSS VL: DIVMTQSPDSLAVSLGERATINCRASKSVSTSGYSYMHWYQQKPGQPPKLLIYLASNLESGVPDRFSGSGSGTDFTLTISSLQAEDVAVYYCQHSRELPYTFGQGTKLEIK | – | binds |
| MYT12414 (hu7E6SVG variant, HCV substitutions at 34, 51) (antibody, V domains shown) VH: QVQLQESGPGLVKPSETLSLTCTVSGGSISSYGHHWIRQPPGKGLEWIGVHWTSGVTDYNSALMGRVTISVDTSKNQFSLKLSSVTAADTAVYYCARDGDYDRYTMDYWGQGTLVTVSS VL: DIVMTQSPDSLAVSLGERATINCRASKSVSTSGYSYMHWYQQKPGQPPKLLIYLASNLESGVPDRFSGSGSGTDFTLTISSLQAEDVAVYYCQHSRELPYTFGQGTKLEIK | – | binds |
| MYT12430 (hu7E6SVG variant, HCV substitutions at 33, 51, 103) (antibody, V domains shown) VH: QVQLQESGPGLVKPSETLSLTCTVSGGSISSYHVHWIRQPPGKGLEWIGVHWTSGVTDYNSALMGRVTISVDTSKNQFSLKLSSVTAADTAVYYCARDGDYDHYTMDYWGQGTLVTVSS VL: DIVMTQSPDSLAVSLGERATINCRASKSVSTSGYSYMHWYQQKPGQPPKLLIYLASNLESGVPDRFSGSGSGTDFTLTISSLQAEDVAVYYCQHSRELPYTFGQGTKLEIK | – | binds |
| MYT12411 (hu7E6SVG variant, HCV substitutions at 33, 102) (antibody, V domains shown) VH: QVQLQESGPGLVKPSETLSLTCTVSGGSISSYHVHWIRQPPGKGLEWIGVIWTSGVTDYNSALMGRVTISVDTSKNQFSLKLSSVTAADTAVYYCARDGDYHRYTMDYWGQGTLVTVSS VL: DIVMTQSPDSLAVSLGERATINCRASKSVSTSGYSYMHWYQQKPGQPPKLLIYLASNLESGVPDRFSGSGSGTDFTLTISSLQAEDVAVYYCQHSRELPYTFGQGTKLEIK | – | binds |
| MYT12422 (hu7E6SVG variant, HCV substitutions at 51, 106) (antibody, V domains shown) VH: QVQLQESGPGLVKPSETLSLTCTVSGGSISSYGVHWIRQPPGKGLEWIGVHWTSGVTDYNSALMGRVTISVDTSKNQFSLKLSSVTAADTAVYYCARDGDYDRYTHDYWGQGTLVTVSS VL: DIVMTQSPDSLAVSLGERATINCRASKSVSTSGYSYMHWYQQKPGQPPKLLIYLASNLESGVPDRFSGSGSGTDFTLTISSLQAEDVAVYYCQHSRELPYTFGQGTKLEIK | – | binds |
| MYT12432 (hu7E6SVG variant, HCV substitutions at 33, 56, 103) (antibody, V domains shown) VH: QVQLQESGPGLVKPSETLSLTCTVSGGSISSYHVHWIRQPPGKGLEWIGVIWTSGHTDYNSALMGRVTISVDTSKNQFSLKLSSVTAADTAVYYCARDGDYDHYTMDYWGQGTLVTVSS VL: DIVMTQSPDSLAVSLGERATINCRASKSVSTSGYSYMHWYQQKPGQPPKLLIYLASNLESGVPDRFSGSGSGTDFTLTISSLQAEDVAVYYCQHSRELPYTFGQGTKLEIK | – | binds |
| MYT12419 (hu7E6SVG variant, HCV substitutions at 51, 56) (antibody, V domains shown) VH: QVQLQESGPGLVKPSETLSLTCTVSGGSISSYGVHWIRQPPGKGLEWIGVHWTSGHTDYNSALMGRVTISVDTSKNQFSLKLSSVTAADTAVYYCARDGDYDRYTMDYWGQGTLVTVSS VL: DIVMTQSPDSLAVSLGERATINCRASKSVSTSGYSYMHWYQQKPGQPPKLLIYLASNLESGVPDRFSGSGSGTDFTLTISSLQAEDVAVYYCQHSRELPYTFGQGTKLEIK | – | binds |
| MYT12418 (hu7E6SVG variant, HCV substitutions at 34, 106) (antibody, V domains shown) VH: QVQLQESGPGLVKPSETLSLTCTVSGGSISSYGHHWIRQPPGKGLEWIGVIWTSGVTDYNSALMGRVTISVDTSKNQFSLKLSSVTAADTAVYYCARDGDYDRYTHDYWGQGTLVTVSS VL: DIVMTQSPDSLAVSLGERATINCRASKSVSTSGYSYMHWYQQKPGQPPKLLIYLASNLESGVPDRFSGSGSGTDFTLTISSLQAEDVAVYYCQHSRELPYTFGQGTKLEIK | – | binds |
